Paper doi:10.1101/2021.07.12.452133

Legend:
[1] = molecular target: MBP-tagged delVirB4_CTn4 (NH2-terminally truncated VirB4-like ATPase of the CTn4 locus, C. difficile 630) (Clostridioides difficile strain 630); assay: SEC
[2] = molecular target: MBP-tagged delVirB4_CTn4 (NH2-terminally truncated VirB4-like ATPase of the CTn4 locus, C. difficile 630) (Clostridioides difficile strain 630); assay: negative-stain transmission electron microscopy
[3] = molecular target: MBP-tagged delVirD4_CTn4 (NH2-terminally truncated VirD4-like ATPase of the CTn4 locus, C. difficile 630) (Clostridioides difficile strain 630); assay: SEC
[4] = molecular target: MBP-tagged delVirD4_CTn4 (NH2-terminally truncated VirD4-like ATPase of the CTn4 locus, C. difficile 630) (Clostridioides difficile strain 630); assay: negative-stain transmission electron microscopy

Substance | oligomerization rate [1] [%] | stoichiometry N [1] [monomers] | stoichiometry N [2] | oligomerization rate [3] [%] | stoichiometry N [3] [monomers] | stoichiometry N [4]
MBP-tagged delVirB4_CTn4 (NH2-terminally truncated VirB4-like ATPase of the CTn4 locus, C. difficile 630) (domain or fragment) | 100 | > 6 | 6 to 7 | – | – | –
MBP-tagged delVirD4_CTn4 (NH2-terminally truncated VirD4-like ATPase of the CTn4 locus, C. difficile 630) (domain or fragment) | – | – | – | 100 | > 6 | 6 to 7
